Data on 3 molecules can be found in patent US20220195067A1 (LAMKAP BIO BETA, published 2022).

Changes are numbered by the printed parent chain.

Test [1] concerns the target T1, human CEACAM5 on CEACAM5-expressing cancer cell lines (human, UniProt P06731 35-685).
T1 construct: whole, on cells; also called CEACAM5 on SK-CO-1, MKN-45, HPAF-II, SNU-C1, Ls174T, LoVo cells
T1 sequence (looked up): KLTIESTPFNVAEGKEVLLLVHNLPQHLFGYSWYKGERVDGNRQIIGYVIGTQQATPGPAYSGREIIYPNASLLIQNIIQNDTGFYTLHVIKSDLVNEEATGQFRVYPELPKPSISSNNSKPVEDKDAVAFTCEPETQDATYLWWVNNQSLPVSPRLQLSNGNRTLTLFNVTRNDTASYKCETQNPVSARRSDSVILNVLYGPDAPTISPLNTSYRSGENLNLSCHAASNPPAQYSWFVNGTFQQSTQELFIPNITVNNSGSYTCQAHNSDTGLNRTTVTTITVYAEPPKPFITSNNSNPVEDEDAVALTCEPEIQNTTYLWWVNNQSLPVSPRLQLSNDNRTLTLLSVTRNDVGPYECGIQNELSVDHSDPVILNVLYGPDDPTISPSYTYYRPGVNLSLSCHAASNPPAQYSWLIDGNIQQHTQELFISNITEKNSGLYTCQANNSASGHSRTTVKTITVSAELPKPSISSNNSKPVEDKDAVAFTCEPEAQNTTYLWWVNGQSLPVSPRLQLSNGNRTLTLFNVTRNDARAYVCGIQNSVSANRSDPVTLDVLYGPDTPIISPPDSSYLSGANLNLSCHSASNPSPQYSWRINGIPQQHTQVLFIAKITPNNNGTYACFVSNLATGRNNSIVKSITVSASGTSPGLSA
The test is described as follows: flow cytometry on LoVo cells (carry CEACAM5 and CD47), PE anti-human IgG Fc. On the procedure: (§1) The binding of CD47×CEACAM5 bispecific antibodies was tested on CEACAM5-expressing human gastric adenocarcinoma cells (e.g. MKN-45), on CEACAM5-expressing human colorectal cancer cells (SK-CO-1, SNU-C1, Ls174T, and LoVo), and on CEACAM5-expressing pancreatic adenocarcinoma cells (HPAF-II).
(§2) Cells were harvested, counted, checked for viability and resuspended at 3×10⁶ cells/ml in FACS buffer (PBS 2% BSA, 0.1% NaN3). 100 μl of the cell suspension was distributed in V-bottom 96-well plates (3×10⁵ cells/well). The supernatant was removed by centrifugation 3 minutes at 4° C., 1300 rpm. Increasing concentrations of the antibody according to the invention were then added into the wells and incubated for 15 minutes at 4° C. Cells were washed twice with cold FACS buffer and re-incubated for further 15 minutes at 4° C. with the PE (R-phycoerythrin)-conjugated mouse anti-human IgG Fc secondary antibody (SouthernBiotech, pre-diluted 1:100 in FACS buffer). Cells were washed twice with cold FACS buffer and resuspended in 300 μl FACS buffer with 1:15000-diluted SytoxBlue (Life Technologies). Fluorescence, specifically mean fluorescence […] (MFI), was determined using a Cytoflex […] flow cytometer. Binding curves and […] and Emax values were obtained and calculated using GraphPad Prism7 software.
A general note: In flow cytometry, cells or beads pass a laser one at a time.

Test [2] concerns the target T1, human CEACAM5 on CEACAM5-expressing …. The test is described as follows: flow cytometry on Ls174T cells (carry CEACAM5 and CD47), PE anti-human IgG Fc. As for the experimental part: as §1, §2
For test [3] the target is unchanged. The test is described as follows: flow cytometry on MKN-45 cells (carry CEACAM5 and CD47), PE anti-human IgG Fc. As for the experimental part:
as §1, §2

Test [4] has the same target. The test is described as follows: flow cytometry on SNU-C1 cells (carry CEACAM5 and CD47), PE anti-human IgG Fc. As for the experimental part: as §1, §2
The target is the same in test [5]. The test is described as follows: flow cytometry on HPAF-II cells (carry CEACAM5 and CD47), PE anti-human IgG Fc. As for the experimental part:
as §1, §2

The target is the same in test [6]. The test is described as follows: flow cytometry on SK-CO-1 cells (carry CEACAM5 and CD47), PE anti-human IgG Fc. As for the experimental part:
as §1, §2

Test [7] has as its target T2, human CD47 expressed at the surface of MKN-45 cells (human, UniProt Q08722 19-323).
T2 construct: whole, on cells; MKN-45 cells express both CD47 and CEACAM5; also called hCD47
The test is described as follows: CD47/SIRPα blocking assay on MKN-45 cells (carry CD47 and CEACAM5), imaging of bound SIRPα-mouseFc. An excerpt:
The cell-based assay monitoring the interaction of soluble SIRPa with human CD47 expressed at the surface of MKN-45 cells as described below was used for the detection of the blocking activity. Concentration-response experiments with bispecific antibodies according to the invention allowed determination of inhibition curves (see FIG. 4) and of IC50 values (see Table 12).
MKN-45 cancer cells, expressing both CD47 and CEACAM5, were stained with CFSE violet to allow the imaging system (CX5) to detect the cells. Briefly, 3'000 stained MKN-45 cells per well were seeded in a 384 optical well plate (Costar) and incubated for 50 minutes with increased concentrations of bispecific antibodies of the invention ([…] to 333 nM, in quadruplicates). Then, a fixed concentration of SIRPα-mouseFc premixed with anti-mouse IgG-Fc AF647 coupled antibody (Jackson Immunoresearch diluted 1:2000) was added at 50 ng/mL final. After an incubation of 3 hours and 30 minutes, images of the fluorescence signals emitted by the detected bound SIRPa on the plates were acquired with the imaging system (CX5, Thermo Fisher). Fluorescence signals (mean fluorescence intensity MFI) were plotted according to the dose range tested, and IC50 was calculated by the software (Prism, GraphPad).

T2 sequence (Q08722 19-323): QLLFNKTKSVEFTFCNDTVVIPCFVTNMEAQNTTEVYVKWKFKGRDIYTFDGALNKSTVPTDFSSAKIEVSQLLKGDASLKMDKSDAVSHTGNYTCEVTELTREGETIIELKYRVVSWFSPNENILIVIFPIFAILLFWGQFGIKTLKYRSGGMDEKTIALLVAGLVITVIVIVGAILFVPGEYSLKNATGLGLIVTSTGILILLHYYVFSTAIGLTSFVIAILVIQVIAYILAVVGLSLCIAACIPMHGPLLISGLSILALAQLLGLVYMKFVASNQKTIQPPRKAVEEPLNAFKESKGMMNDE

B1: K2AC82 (bispecific antibody, human IgG1, kappa, lambda)
heavy: not shown
light 1: QSVLTQPPSVSAAPGQKVTISCSGSSSNIGYGLVSWYQQLPGTAPKLLIYGINKRPSGIPDRFSGSKSGTSATLGITGLQTGDEADYYCGTWDFSYRVDFGGGTKLTVLGQPKAAPSVTLFPPSSEELQANKATLVCLISDFYPGAVTVAWKADSSPVKAGVETTTPSKQSNNKYAASSYLSLTPEQWKSHRSYSCQVTHEGSTVEKTVAPTECS
light 2: not shown
notes: Kappa-lambda body; also called CD47xCEACAM5 bispecific antibody K2AC82; AC82 (CEACAM5 arm)
The term EC50 denotes the concentration that produces a half-maximal response. A high value points to a less potent agent. By IC50 is commonly meant the concentration that inhibits the measured activity by half. For the molecule B1, the EC50 in test [1] worked out at 22 nM; in test [2] it was 11.3 nM; in test [3], 10 nM; in test [4], 4.4 nM; in test [5], 11.3 nM; in test [6], 17.3 nM. The “Emax (MFI)” value in test [1] stood at 260000 MFI; in test [2], 77000 MFI; in test [3] it was 1.18e+06 MFI; in test [4], 280000 MFI; in test [5], 940000 MFI; in test [6], 900000 MFI. In addition, the IC50 in test [7] came to 0.07 nM.

B2: K2AC91 (bispecific antibody, human IgG1, kappa, lambda)
heavy: not shown
light 1: B1 light 1 with Y31I, G51T, I52V, K54N, W92F, R97G, V98I, D99V
light 2: not shown
notes: Kappa-lambda body; also called CD47xCEACAM5 bispecific antibody K2AC91; AC91 (CEACAM5 arm)
Consider B2, for which the EC50 in test [1] was 16 nM; in test [2], 6 nM; in test [3], 8 nM; in test [4], 2.53 nM; in test [6] it was 12.7 nM. Further, the “Emax (MFI)” value worked out at 380000 MFI in test [1]; 100000 MFI in test [2]; 1.64e+06 MFI in test [3]; 400000 MFI in test [4]; 1.3e+06 MFI in test [6]. In addition, the IC50 in test [7] is 0.05 nM.

B3: K2AC117 (bispecific antibody, human IgG1, kappa, lambda)
heavy: not shown
light 1: B1 light 1 with Y31I, G51N, I52G, K54V
light 2: not shown
notes: Kappa-lambda body; also called CD47xCEACAM5 bispecific antibody K2AC117; AC117 (CEACAM5 arm)
On to B3, for which the EC50 in test [1] is 20 nM; in test [2], 6.7 nM; in test [3], 8 nM; in test [4], 3.13 nM; in test [5] it was 7.3 nM; in test [6], 14.7 nM. Moreover, the “Emax (MFI)” value came to 320000 MFI in test [1]; 70000 MFI in test [2]; 1.35e+06 MFI in test [3]; 370000 MFI in test [4]; 1.2e+06 MFI in test [5]; 1.1e+06 MFI in test [6]. Also, in test [7], the IC50 is 0.08 nM.
